Laboratory results from US20240141038A1 (SHANGHAI QILU PHARMACEUTICAL RESEARCH AND DEVELOPMENT CENTRE, published 2024).
Substitutions are numbered along the chain they refer to. Read-outs that look alike come from different tables or passages of the source. Values belong to the molecule of their own block, whether it stands above or below them.

Experiments:
[1] = target: cynomolgus monkey NKp46 (full length, on cells) (cynomolgus monkey) (UniProt Q95JB9); test: flow cytometry on cynomolgus monkey NKp46-CHOK1 cells
[2] = target: T1, human NKp46 (full length, on cells) (human, UniProt O76036 22-304); test: flow cytometry on human NKp46-CHOK1 cells
Procedure: (§1) The stable human NKp46-CHOK1 and cynomolgus monkey NKp46-CHOK1 cell lines obtained in Example 2 were cultured, the cells were digested with 0.25% pancreatic enzyme EDTA for about 5 minutes, and the digestion was terminated with the complete medium. After centrifugation at 1,500 rpm for 5 minutes, the supernatant was discarded, the precipitated cells were resuspended with PBS containing 1% BSA and counted. The cell density was adjusted to 1E6/mL and seeded in a corning-3799 96-well culture plate at 100 μL/well. Aftering centrifuging at 1,500 rpm for 5 minutes, the supernatant was discarded and the precipitate was set aside at 4° C. The antibody solutions were prepared with PBS containing 1% BSA, wherein the antibody solution has an initial concentration was 100 nM, then diluted in 10-fold to obtain 7 gradients: 10⁻⁴ nM, 10⁻³ nM, 10⁻² nM, 10⁻¹ nM, […], and 10² nM. The prepared antibody solutions were used to resuspend the cells, 100 μL/well. The resuspended cell culture plates were incubated in a 4° C. freezer for 1 h. After centrifugation at 1500 rpm for 5 minutes, the supernatant was discarded. The precipitate was washed with 160 μL of PBS containing 1% BSA, the supernatant was discarded, and the cells were stored for later use.
(§2) The Secondary antibody (goat anti human IgG Fc PE) solution was prepared with PBS containing 1% BSA, and diluted 1:200. The cells were resuspended with the prepared secondary antibody solution, 100 μL/well, incubated in a 4° C. freezer for 0.5 h. After centrifugation at 1,500 rpm for 5 minutes, the supernatant was discarded, the precipitated cells were washed with 160 μL of PBS containing 1% BSA, the supernatant was discarded, the cells were resuspended with 100 μL of PBS containing 1% BSA, and filtered in 300-mesh gauze. The mean fluorescence intensity of antibody binding to cells was then analyzed on a flow cytometer. The FCS file was exported from the flow cytometer, the mean fluorescence intensity (hereinafter referred to as MFI) of PE channel was analyzed with Flowjo software, and the mean fluorescence intensity obtained was introduced into the Graphpad to analyze the half binding concentration (hereinafter referred to as EC₅₀) and the top mean fluorescence intensity (Top MFI) of the antibody and the cell.

[3] = target: cynomolgus monkey NKp46 (full length, on cells) (cynomolgus monkey) (UniProt Q95JB9); test: flow cytometry on cynomolgus monkey NKp46-CHOK1 cells; remark: listed apart in the source
[4] = target: T2, Human NKp46 antigen for immunization, screening, and testing (Kactus, NKP-HM146) (human, UniProt O76036 22-255); test: SPR (Biacore 8K), antibody captured on anti-human Fc, NKp46 as analyte, 1:1 fit
T2 construct: Bought protein; also called human NKp46 antigen protein; human NKp46 protein
Procedure: Human NKp46 was diluted in two-fold to a serial concentration (400 nM-3.125 nM), then combined for 90 s at a flow rate of 50 μL/min, and dissociated for 500 s.
(§3) At the end of each round of experiments, 3 M MgCl₂ solution was used to rinse at a flow rate of 30 μL/min for 30 s, and the captured antibody was removed along with the antigen to complete the regeneration of the chip. The raw data were analyzed using Biacore Insight Evaluation Software (version 3.0.12.15655) software and (1:1) Langmuir model was fit to the data. Compared with the anti-NKp46 humanized antibody and the corresponding chimeric antibody, the affinity to the human NKp46 antigen protein is mostly maintained.

[5] = target: T1, human NKp46 (full length, on cells); test: cell-based or functional assay
[6] = target: T3, Cynomolgus monkey NKp46 for immunization, screening, and testing (Kactus, NKP-CM146) (cynomolgus monkey, UniProt Q95JB9 22-254); test: SPR (Biacore 8K), antibody captured on anti-human Fc, NKp46 as analyte, 1:1 fit
T3 construct: Bought protein; also called monkey NKp46 antigen protein; cynomolgus monkey NKp46 antigen
Procedure: Cynomolgus monkey NKp46 was diluted in two-fold to a serial concentration (400 nM-3.125 nM), combined for 90 s at a flow rate of 50 μL/min and dissociated for 500 s.
as §3

[7] = target: T4, cynomolgus monkey NKp46 (full length, on cells) (cynomolgus monkey, UniProt Q95JB9 22-306); test: flow cytometry on cynomolgus monkey NKp46-CHOK1 cells
T4 construct: also called cynomolgus monkey NKp46-CHOK1; cynomolgus NKp46-CHOK1
Procedure: as §1, §2

T1 sequence (O76036 22-304 Q82K): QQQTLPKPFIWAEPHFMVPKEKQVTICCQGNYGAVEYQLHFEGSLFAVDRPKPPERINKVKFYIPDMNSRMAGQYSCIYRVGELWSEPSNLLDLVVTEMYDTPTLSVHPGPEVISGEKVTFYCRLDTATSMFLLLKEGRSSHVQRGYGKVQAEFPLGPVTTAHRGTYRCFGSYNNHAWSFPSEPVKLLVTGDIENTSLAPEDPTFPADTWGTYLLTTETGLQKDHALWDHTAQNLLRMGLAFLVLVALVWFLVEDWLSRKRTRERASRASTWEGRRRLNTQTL
T4 sequence (Q95JB9 22-306): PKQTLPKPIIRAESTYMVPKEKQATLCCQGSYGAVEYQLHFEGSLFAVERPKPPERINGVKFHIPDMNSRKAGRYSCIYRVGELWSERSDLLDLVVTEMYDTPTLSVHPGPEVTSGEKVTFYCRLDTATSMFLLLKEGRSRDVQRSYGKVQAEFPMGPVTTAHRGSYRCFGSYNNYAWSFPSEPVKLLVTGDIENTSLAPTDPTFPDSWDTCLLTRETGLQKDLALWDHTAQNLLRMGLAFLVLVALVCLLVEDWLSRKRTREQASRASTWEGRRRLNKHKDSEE
T3 sequence (Q95JB9 other isoform, or with tags, fused parts or gaps limits assumed): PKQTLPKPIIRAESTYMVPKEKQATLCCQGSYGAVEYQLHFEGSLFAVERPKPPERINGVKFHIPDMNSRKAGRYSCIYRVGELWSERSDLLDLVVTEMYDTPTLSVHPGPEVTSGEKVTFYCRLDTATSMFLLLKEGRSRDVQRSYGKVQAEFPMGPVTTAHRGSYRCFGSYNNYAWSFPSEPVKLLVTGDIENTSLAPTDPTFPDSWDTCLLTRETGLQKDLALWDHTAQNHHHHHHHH
T2 sequence (O76036 other isoform, or with tags, fused parts or gaps limits assumed): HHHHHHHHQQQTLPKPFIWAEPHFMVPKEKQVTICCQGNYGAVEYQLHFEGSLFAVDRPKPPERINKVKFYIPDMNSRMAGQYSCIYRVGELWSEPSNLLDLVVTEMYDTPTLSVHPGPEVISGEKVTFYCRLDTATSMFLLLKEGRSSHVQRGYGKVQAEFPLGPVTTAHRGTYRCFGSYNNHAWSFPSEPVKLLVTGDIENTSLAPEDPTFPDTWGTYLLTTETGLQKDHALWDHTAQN
Sequence of cynomolgus monkey NKp46 (full length, on cells) (cynomolgus monkey) (Q95JB9 22-306): as the sequence (Q95JB9 22-306) above

Top MFI [1]: 118
Top MFI [2]: 223
Top MFI ([2]; record 2): 98
Top MFI [3]: 86
Molecule: Anti-HEL human IgG1 LALA (Biointron, Cat. number B109802) (antibody)

Kd [4]: 10.9 nM
koff [4]: 0.000959 s⁻¹
kon [4]: 87800 M⁻¹ s⁻¹
EC50 of NK cell activation (CD107a-positive NK cells, plate-coated antibody) [5]: 0.63 nM
Top mean fluorescence intensity (Top MFI), NK cell activation (CD107a) [5]: 35.3
EC50 [2]: 0.203 nM
Top MFI [2]: 5940
Kd [6]: 7.69 nM
koff [6]: 0.000596 s⁻¹
kon [6]: 77500 M⁻¹ s⁻¹
EC50 [7]: 2.11 nM
Top MFI [7]: 3270
B1: H2-PA31 humanized antibody (antibody, human IgG1, V domains shown)
VH: EVQLVESGGGLVQPGGSLRLSCAVSGRTFSRLPMGWFRQAPGKGLEFVAAISWSSSTTYYADSVKGRFTISRDNSKNTAYLQMNSLRAEDTAVYYCAAVGGSLDYSATVVYTAARAYADWGQGTLVTVSS
notes: not shown: constant region of human IgG1

Kd [4]: 24.1 nM
koff [4]: 0.00154 s⁻¹
kon [4]: 63800 M⁻¹ s⁻¹
EC50 of NK cell activation (CD107a-positive NK cells, plate-coated antibody) [5]: 0.75 nM
Top mean fluorescence intensity (Top MFI), NK cell activation (CD107a) [5]: 39.1
EC50 [2]: 0.274 nM
Top MFI [2]: 5610
Kd [6]: 7.34 nM
koff [6]: 0.000563 s⁻¹
kon [6]: 76700 M⁻¹ s⁻¹
EC50 [7]: 2.76 nM
Top MFI [7]: 3590
B2: H2-PA45 humanized antibody (antibody, V domains shown)
VH: EVQLVESGGGLVQPGGSLRLSCAASGRTFSRLPMAWFRQAPGKGLEFVAAISWSGGSTYYADSMKGRFTISRDNSKNTAYLQMNSLRAEDTAVYYCAAVGDSAPYSATIVYTDARAYAYWGQGTLVTVSS
notes: as for B1

Kd [4]: 21.9 nM
koff [4]: 0.00204 s⁻¹
kon [4]: 93000 M⁻¹ s⁻¹
EC50 of NK cell activation (CD107a-positive NK cells, plate-coated antibody) [5]: 0.4 nM
Top mean fluorescence intensity (Top MFI), NK cell activation (CD107a) [5]: 37.6
EC50 [2]: 0.205 nM
Top MFI [2]: 5760
EC50 [7]: 1.53 nM
Top MFI [7]: 3400
B3: H4-PA45 humanized antibody (antibody, V domains shown)
VH: B2 VH with G44D, L45R
notes: as for B1

Kd [4]: 22.1 nM
koff [4]: 0.00216 s⁻¹
kon [4]: 97700 M⁻¹ s⁻¹
EC50 of NK cell activation (CD107a-positive NK cells, plate-coated antibody) [5]: > 20 nM
Top mean fluorescence intensity (Top MFI), NK cell activation (CD107a) [5]: 14.1
EC50 [2]: 0.153 nM
Top MFI [2]: 6940
Kd [6]: 23.4 nM
koff [6]: 0.0059 s⁻¹
kon [6]: 252000 M⁻¹ s⁻¹
EC50 [7]: 0.069 nM
Top MFI [7]: 3800
B4: H2-PA27 humanized antibody (antibody, human IgG1, V domains shown)
VH: QVQLVESGGGVVQPGRSLRLSCAASGRTESWYRMGWFRQAPGKGLEVVARISGDTNIKYYAGSVKGRFTISRDNSKNTLYLQMSSLRAEDTAVYYCAADRTGATWDYWGQGTLVTVSS
notes: as for B1

Kd [4]: 6.05 nM
koff [4]: 0.000307 s⁻¹
kon [4]: 50800 M⁻¹ s⁻¹
EC50 of NK cell activation (CD107a-positive NK cells, plate-coated antibody) [5]: 0.85 nM
Top mean fluorescence intensity (Top MFI), NK cell activation (CD107a) [5]: 21
EC50 [2]: 0.389 nM
Top MFI [2]: 6710
Kd [6]: 115 nM
koff [6]: 0.00589 s⁻¹
kon [6]: 51300 M⁻¹ s⁻¹
EC50 [7]: 0.345 nM
Top MFI [7]: 3260
B5: H1-PC11 humanized antibody (antibody, human IgG1, V domains shown)
VH: EVQLVESGGGLVQPGGSLRLSCAASPYSANSFSMAWFRQAPGKGLEGVACIQAESGSTNVAPSVKGRFTISQDNSKNTLYLQMNSLRAEDTAVYYCAAFKRNVGGCELRPEHWRFWGQGTLVTVSS
notes: as for B1
